Target: murine Htk ligand (murine)
Assay: steady-state competition of 125I-Htk-Fc with unlabelled Htk-Fc on SV40MES 13 cells, Scatchard analysis

Q: soluble Htk receptor-Fc fusion protein was tested. Which Kd did it give?
A: 3 nM

Source: patent US5624899
